Reference: patent US20250320252A1, “LONG-ACTING DUAL GIP/GLP-1 PEPTIDE CONJUGATES AND METHODS OF USE” (The Scripps Research Institute, priority 2021, published 2025)

Assays:
[1] = molecular target: cynomolgus monkey GLP1R (cynomolgus monkey) (UniProt F8V479); test: cell-based or functional assay
[2] = molecular target: cynomolgus monkey GIPR (cynomolgus monkey); test: cell-based or functional assay

In Vitro Potency GLP1R EC50 [nM], Cyno [1] [nM]	In Vitro Potency GIPR EC50 [nM], Cyno [2] [nM]	Substance
0.13	–	Semaglutide (peptide)
–	0.08	Tirzepatide (peptide)
